What was measured:
[1] = target: T1, human FcγRI (hFcγRI), coated on ELISA wells (human, UniProt P12314 16-288); assay: ELISA, hFcγRI-coated wells, NSO supernatant, Rb anti-PspA or Rb anti-HSA detection
T1 construct: also called CD64

[2] = target: T2, human FcγRI on hFcγRI-expressing U937 cells (human, UniProt P12314 16-374); assay: flow cytometry on U937 cells, NSO supernatant, in the presence of human IgG, Rb anti-PspA or Rb anti-HSA detection
T2 construct: whole, on cells; also called hFcγRI on U937 cells
T2 sequence (P12314 16-374): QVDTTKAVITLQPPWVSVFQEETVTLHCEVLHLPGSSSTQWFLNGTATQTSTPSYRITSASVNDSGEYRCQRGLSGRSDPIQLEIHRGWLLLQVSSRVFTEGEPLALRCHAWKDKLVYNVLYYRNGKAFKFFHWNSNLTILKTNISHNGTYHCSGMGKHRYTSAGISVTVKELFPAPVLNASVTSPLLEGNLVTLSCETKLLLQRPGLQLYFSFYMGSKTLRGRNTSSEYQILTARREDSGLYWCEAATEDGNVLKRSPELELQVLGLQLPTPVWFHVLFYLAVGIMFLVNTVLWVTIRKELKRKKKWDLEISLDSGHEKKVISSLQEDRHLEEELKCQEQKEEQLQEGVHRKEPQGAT

T1 sequence (P12314 16-288 limits assumed): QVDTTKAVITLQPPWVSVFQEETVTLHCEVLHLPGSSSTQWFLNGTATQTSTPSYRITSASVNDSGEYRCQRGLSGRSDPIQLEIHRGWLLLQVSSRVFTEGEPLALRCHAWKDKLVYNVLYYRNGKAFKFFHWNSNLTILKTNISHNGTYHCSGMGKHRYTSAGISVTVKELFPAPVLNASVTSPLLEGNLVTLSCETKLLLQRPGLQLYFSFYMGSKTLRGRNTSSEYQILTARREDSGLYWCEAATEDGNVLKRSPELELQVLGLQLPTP

B1: trivalent anti-hFcγRI-PspA fusion protein (other)
chain: DIQLTQSPSSLSASVGDRVTITCKSSQSVLYSSNQKNYLAWYQQKPGKAPKLLIYWASTRESGVPSRFSGSGSGTDFTFTISSLQPEDIATYYCHQYLSSWTFGQGTKVEIKSSGGGGSGGGGSGGGGSEVQLVESGGGVVQPGRSLRLSCSSSGFIFSDNYMYWVRQAPGKGLEWVATISDGGSYTYYPDSVKGRFTISRDNSKNTLFLQMDSLRPEDTGVYFCARGYYRYEGAMDYWGQGTPVTVSSGSTGGGGSTSAGGGGSSDIQLTQSPSSLSASVGDRVTITCKSSQSVLYSSNQKNYLAWYQQKPGKAPKLLIYWASTRESGVPSRFSGSGSGTDFTFTISSLQPEDIATYYCHQYLSSWTFGQGTKVEIKSSGGGGSGGGGSGGGGSEVQLVESGGGVVQPGRSLRLSCSSSGFIFSDNYMYWVRQAPGKGLEWVATISDGGSYTYYPDSVKGRFTISRDNSKNTLFLQMDSLRPEDTGVYFCARGYYRYEGAMDYWGQGTPVTVSSGSTGGGGSTASGGGGSSDIQLTQSPSSLSASVGDRVTITCKSSQSVLYSSNQKNYLAWYQQKPGKAPKLLIYWASTRESGVPSRFSGSGSGTDFTFTISSLQPEDIATYYCHQYLSSWTFGQGTKVEIKSSGGGGSGGGGSGGGGSEVQLVESGGGVVQPGRSLRLSCSSSGFIFSDNYMYWVRQAPGKGLEWVATISDGGSYTYYPDSVKGRFTISRDNSKNTLFLQMDSLRPEDTGVYFCARGYYRYEGAMDYWGQGTPVTVSSGSTGGGGSTEFMEESPVASQSKAEKDYDAAKKDAKNAKKAVEDAQKALDDAKAAQKKYDEDQKKTEEKAALEKAASEEMDKAVAAVQQAYLAYQQATDKAAKDAADKMIDEAKKREEEAKTKFNTVRAMVVPEPEQLAETKKKSEEAKQKAPELTKKLEEAKAKLEEAEKKATEAKQKVDAEEVAPQAKIAELENQVHRLEQELKEIDESESEDYAKEGFRAPLQSKLDAKKAKLSKLEELSDKIDELDAEIAKLEDQLKAAEENNNVEDYFKEGLEKTIAAKKAELEKTEADLKKAVNEPEKPAPAPETPAPELEHHHHHH
notes: Single-chain fusion: three humanized 22 (H22) anti-human FcγRI VL-VH scFv units, then PspA (S. pneumoniae strain Rx1) and a His tag; Tested as unpurified supernatant of transfected NSO cells; also called Trivalent Anti-FcγRI-PspA; Construct B
binding result [1]: binds
binding result [2]: binds
